Experimental data taken from US11278600B2, “Human alpha-galactosidase variants” (Codexis, Inc., priority 2014, dated 2022).

B1: 234 (protein)
chain: LDNGLARTPTMGWLHWERFMCNLDCQEEPDSCISEKLFMEMAELMVSEGWKDAGYEYLCIDDCWMAPQRDSEGRLQADPQRFPHGIRQLANYVHSKGLKLGIYADVGNKTCAGFPGSFGYYDIDAQTFADWGVDLLKFDGCYCDSLENLADGYKHMSLALNRTGRSIVYSCEWPLYMWPFQKPNYTEIRQYCNHWRNFADIDDSWASIKSILDWTSRNQERIVDVAGPGGWNDPDMLVIGNFGLSWDQQVTQMALWAIMAAPLFMSNDLRHISPQAKALLQDKDVIAINQDPLGKQGYQLRKGDNFEVWERPLSGLAWAVAMINRQEIGGPRSYTIAVASLGKGVACNPGCFITQLLPVKRKLGFYDWDSRLRSHINPTGTVLLQLENTMQMSLKDLL
modifications: Synthetic Polypeptide sequence of Variant No. 234 of mature Human GLA
B2: 235 (protein)
chain: LDNGLARTPTMGWLHWERFMCNLDCQEEPDSCISEKLFMEMAELMVSEGWKDAGYEYLCIDDCWMAPQRDSEGRLQADPQRFPHGIRQLANYVHSKGLKLGIYADVGNKTCAGFPGSFGYYDIDAQTFADWGVDLLKFDGCYCDSLENLADGYKHMSLALNRTGRSIVYSCEWPLYMWPFQKPNYTEIRQYCNHWRNFADIDDSWASIKSILDWTSRNQERIVDVAGPGGWNDPDMLVIGNFGLSWDQQVTQMALWAIMAAPLFMSNDLRHISPQAKALLQDKDVIAINQDPLGKQGYQLRKGDNFEVWERPLSGDAWAVAMINRQEIGGPRSYTIPVASLGKGVACNPGCFITQLLPVKRKLGFYDWDSRLRSHINPTGTVLLQLENTMQMSLKDLL
modifications: Synthetic Polypeptide sequence of Variant No. 235 of mature Human GLA
B3: 236 (protein)
chain: LDNGLARTPTMGWLHWERFMCNLDCQEEPDSCISEKLFMEMAELMVSEGWKDAGYEYLCIDDCWMAPQRDSEGRLQADPQRFPHGIRQLANYVHSKGLKLGIYADVGNKTCAGFPGSFGYYDIDAQTFADWGVDLLKFDGCYCDSLENLADGYKHMSLALNRTGRSIVYSCEWPLYMWPFQKPNYTEIRQYCNHWRNFADIDDSWASIKSILDWTSRNQERIVDVAGPGGWNDPDMLVIGNFGLSWNQQVTQMALWAIMAAPLFMSNDLRHISPQAKALLQDKDVIAINQDPLGKQGYQLRKGDNFEVWERPLSGLAWAVAMINRQEIGGPRSYTIAVASLGKGVACNPACFITQLLPVKRKLGFYDWDSRLRSHINPTGTVLLQLENTMQMSLKDLL
modifications: Synthetic Polypeptide sequence of Variant No. 236 of mature Human GLA
B4: 300 (protein)
chain: LDNGLARTPTMGWLHWERFMCNLDCQEEPDSCISEKLFMEMAELMVSEGWKDAGYEYLCIDDCWMAPQRDSEGRLQADPQRFPHGIRQLANYVHSKGLKLGIYADVGNKTCAGFPGSFGYYDIDAQTFADWGVDLLKFDGCYCDSLENLADGYKHMSLALNRTGRSIVYSCEWPLYMWPFQKPNYTEIRQYCNHWRNFADIDDSWASVKSILDWTSFNQETIVDVAGPGGWNDPDMLVIGNFGLSWDQQVTQMALWAIMAAPLFMSNDLRHISPQAKALLQDKDVIAINQDPLGKQGYQLRQGDNFEVWERPLSGLAWAVAVINRQEIGGPRSYTIAVASLGGGVACNPACFITQLLPVKRKLGFYNWTSRLKSHINPTGTVLLQLENTMQMSLKDLL
modifications: Synthetic Polypeptide sequence of Variant No. 300 of mature Human GLA
B5: 301 (protein)
chain: LDNGLARTPTMGWLHWERFMCNLDCQEEPDSCISEKLFMEMAELMVSEGWKDAGYEYLCIDDCWMAPQRDSEGRLQADPQRFPHGIRQLANYVHSKGLKLGIYADVGNKTCAGFPGSFGYYDIDAQTFADWGVDLLKFDGCYCDSLENLADGYKHMSLALNRTGRSIVYSCEWPLYMWPFQKPNYTEIRQYCNHWRNFADIDDSWASIKSILDWTSFNQERIVDVAGPGGWNDPDMLVIGNFGLSWNQQVTQMALWAIMAAPLFMSNDLRHISPQAKALLQDKDVIAINQDPLGKQGYQLRQGDNFEVWERPLSGLAWAVAIINRQEIGGPRSYTIAVASLGKGVACNPACFITQLLPVKRKLGFYNWTSRLKSHINPTGTVLLQLENTMQMSLKDLL
modifications: Synthetic Polypeptide sequence of Variant No. 301 of mature Human GLA
B6: 302 (protein)
chain: LDNGLARTPTMGWLHWERFMCNLDCQEEPDSCISEKLFMEMAELMVSEGWKDAGYEYLCIDDCWMAPQRDSEGRLQADPQRFPHGIRQLANYVHSKGLKLGIYADVGNKTCAGFPGSFGYYDIDAQTFADWGVDLLKFDGCYCDSLENLADGYKHMSLALNRTGRSIVYSCEWPLYMWPFQKPNYTEIRQYCNHWRNFADIDDSWASIKSILDWTSFNQERIVDVAGPGGWNDPDMLVIGNFGLSWNQQVTQMALWAIMAAPLFMSNDLRHISPQAKALLQDKDVIAINQDPLGKQGYQLRQGDNFEVWERPLSGLAWAVAVINRQEIGGPRSYTIAVASLGGGVACNPACFITQLLPVKRKLGFYNWTSRLKSHINPTGTVLLQLENTMQMSLKDLL
modifications: Synthetic Polypeptide sequence of Variant No. 302 of mature Human GLA
B7: 303 (protein)
chain: LDNGLARTPTMGWLHWERFMCNLDCQEEPDSCISEKLFMEMAELMVSEGWKDAGYEYLCIDDCWMAPQRDSEGRLQADPQRFPHGIRQLANYVHSKGLKLGIYADVGNKTCAGFPGSFGYYDIDAQTFADWGVDLLKFDGCYCDSLENLADGYKHMSLALNRTGRSIVYSCEWPLYMWPFQKPNYTEIRQYCNHWRNFADIDDSWASIKSILDWTSFNQERIVDVAGPGGWNDPDMLVIGNFGLSWDQQVTQMALWAIMAAPLFMSNDLRHISPQAKALLQDKDVIAINQDPLGKQGYQLRQGDNFEVWERPLSGLAWAVAIINRQEIGGPRSYTIEVASLGDGVACNPACFITQLLPVKRKLGLYNWTSRLKSHVNPTGTVLLQLENTMQMSLKDLL
modifications: Synthetic Polypeptide sequence of Variant No. 303 of mature Human GLA

Legend:
Assay type in all cases: biochemical
[1] = HTP-analysis of supernatants pretreated with base (MUGal hydrolysis); details: yeast culture supernatant; for Relative Activity of GLA Variants After Challenge at pH 7.6: activity of the variant/activity of Rd2BB (SEQ ID NO: 10); for Relative Activity of GLA Variants After Challenge at pH 8.2: activity of the variant/activity of Rd3BB (SEQ ID NO: 13)
Outline: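 Fluorescence of released 4-MU (Ex 355 nm, Em 448 nm) after carbonate quench reports MUGal hydrolysis by GLA variants secreted from INVSc1 yeast. Before the acidic (pH 4.3-4.8) 30-180 min reaction at 37° C, supernatants had been pre-incubated at pH 7.0-9.7 for 1-18 h at 37° C.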

[2] = HTP-analysis of yeast culture supernatants, no challenge (MUGal hydrolysis); details: yeast culture supernatant
Outline: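 Activity read as 4-methylumbelliferyl α-D-galactopyranoside hydrolysis: fluorescence (355/448 nm) after sodium carbonate stop, following 30-180 min at 37° C with 2 mM MUGal stock at pH 4.6–4.8. Enzyme source is unchallenged culture supernatant of INVSc1 yeast expressing GLA variants, grown 66-84 h at 30° C.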

[3] = HTP-analysis of supernatants pretreated with acid (MUGal hydrolysis); details: yeast culture supernatant; for Relative Activity of GLA Variants After Challenge at pH 4.2: activity of the variant/activity of Rd2BB (SEQ ID NO: 10); for Relative Activity of GLA Variants After Challenge at pH 4.0: activity of the variant/activity of Rd3BB (SEQ ID NO: 13)
Outline: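 Supernatants from INVSc1 yeast secreting GLA variants were challenged at 37° C. for 1-3 h in McIlvaine buffer at pH 3.3-4.3. Residual activity was then measured on 4 mM MUGal substrate stock at pH 4.8 with citrate buffer pH 4.3, over 30-180 min at 37° C. Reactions were quenched with sodium carbonate and read by fluorescence (Ex 355/Em 448 nm).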

[4] = HTP-analysis of supernatants pretreated with bovine serum (MUGal hydrolysis); details: yeast culture supernatant
Outline: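 Yeast INVSc1 culture supernatants containing secreted GLA variants were mixed with bovine serum (20:80) and held 1 h at 37° C. Serum-treated samples then reacted with MUGal (4 mM stock) in citrate/McIlvaine buffer (pH 4.3/4.8) for 180 min at 37° C., were quenched with sodium carbonate, and read by fluorescence (Ex 355, Em 448 nm).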

[5] = activity of the variant/activity of Rd2BB (SEQ ID NO: 10)
[6] = activity of the variant/activity of Rd3BB (SEQ ID NO: 13)

| Molecule | Relative Activity of GLA Variants After Challenge at pH 7.6 [1] | Relative Activity of GLA Variants After No Challenge (NC) [2, 5] | Relative Activity of GLA Variants After Challenge at pH 4.2 [3] | Relative Activity of GLA Variants After Challenge with Serum [4, 5] | Relative Activity of GLA Variants After Challenge at pH 8.2 [1] | Relative Activity of GLA Variants After No Challenge (NC) [2, 6] | Relative Activity of GLA Variants After Challenge at pH 4.0 [3] | Relative Activity of GLA Variants After Challenge with Serum [4, 6] |
| --- | --- | --- | --- | --- | --- | --- | --- | --- |
| B1 | +++ (+++ = >2.5 relative activity over Rd2BB (SEQ ID NO: 10)) | +++ (+++ = >2.5 relative activity over Rd2BB (SEQ ID NO: 10)) | +++ (+++ = >2.5 relative activity over Rd2BB (SEQ ID NO: 10)) | +++ (+++ = >2.5 relative activity over Rd2BB (SEQ ID NO: 10)) | – | – | – | – |
| B2 | +++ (+++ = >2.5 relative activity over Rd2BB (SEQ ID NO: 10)) | +++ (+++ = >2.5 relative activity over Rd2BB (SEQ ID NO: 10)) | +++ (+++ = >2.5 relative activity over Rd2BB (SEQ ID NO: 10)) | +++ (+++ = >2.5 relative activity over Rd2BB (SEQ ID NO: 10)) | – | – | – | – |
| B3 | +++ (+++ = >2.5 relative activity over Rd2BB (SEQ ID NO: 10)) | +++ (+++ = >2.5 relative activity over Rd2BB (SEQ ID NO: 10)) | ++ (++ = 1.5 to 2.5 relative activity over Rd2BB (SEQ ID NO: 10)) | ++ (++ = 1.5 to 2.5 relative activity over Rd2BB (SEQ ID NO: 10)) | – | – | – | – |
| B4 | – | – | – | – | ++ (++ = >1.5 to 2.5 relative activity over Rd3BB (SEQ ID NO: 13)) | + (+ = 0.5 to 1.5 relative activity over Rd3BB (SEQ ID NO: 13)) | ++ (++ = >1.5 to 2.5 relative activity over Rd3BB (SEQ ID NO: 13)) | ++ (++ = >1.5 to 2.5 relative activity over Rd3BB (SEQ ID NO: 13)) |
| B5 | – | – | – | – | + (+ = 0.5 to 1.5 relative activity over Rd3BB (SEQ ID NO: 13)) | + (+ = 0.5 to 1.5 relative activity over Rd3BB (SEQ ID NO: 13)) | + (+ = 0.5 to 1.5 relative activity over Rd3BB (SEQ ID NO: 13)) | − (− = <0.5 relative activity to Rd3BB (SEQ ID NO: 13)) |
| B6 | – | – | – | – | + (+ = 0.5 to 1.5 relative activity over Rd3BB (SEQ ID NO: 13)) | + (+ = 0.5 to 1.5 relative activity over Rd3BB (SEQ ID NO: 13)) | + (+ = 0.5 to 1.5 relative activity over Rd3BB (SEQ ID NO: 13)) | + (+ = 0.5 to 1.5 relative activity over Rd3BB (SEQ ID NO: 13)) |
| B7 | – | – | – | – | ++ (++ = >1.5 to 2.5 relative activity over Rd3BB (SEQ ID NO: 13)) | ++ (++ = >1.5 to 2.5 relative activity over Rd3BB (SEQ ID NO: 13)) | ++ (++ = >1.5 to 2.5 relative activity over Rd3BB (SEQ ID NO: 13)) | + (+ = 0.5 to 1.5 relative activity over Rd3BB (SEQ ID NO: 13)) |
